Reference: publication PMC9513430

Biological target: Type I collagen
Assay: adhesion of whole bacteria to a coated plate (crystal violet staining); type I collagen (0.002-2 mg in 0.25 M acetic acid) coated on 96-well plates overnight at 4°C, blocked with BSA; overnight cultures of S. mutans (1 x 10^8-1 x 10^10 CFU) 3 h at 37°C; fixed, stained with crystal violet, OD595; percent of parental strain SN74

Cnm of Streptococcus mutans strain TW871, expressed in complemented strain SN74CNDcomp (natural protein)
percent of the collagen binding of parental strain SN74: 60%
